Consider two molecules from paper PMC2947992, “Structure of the Extracellular Portion of CD46 Provides Insights into Its Interactions with Complement Proteins and Pathogens” (PLoS Pathogens, 2010).

Data set [1] has as its target human adenovirus type 11 fiber knob (human adenovirus type 11) (UniProt P35774). The data set is described as follows: crystal structure; complex formed from purified proteins at 4°C for 2 hrs with a 1.2 molar excess of CD46-4D, separated from unbound CD46-4D by size exclusion chromatography (20 mM HEPES, 150 mM NaCl, pH 7.4); crystals at 4°C in 20% polyethylene glycol 1000, 0.2 M ammonium phosphate pH 8.0; space group P6_(3), 2.84 Å. (Size exclusion chromatography separates by hydrodynamic size, large species first.)

Data set [2] deals with the molecule itself. Described as above.

The molecule “CD46-4D, extracellular segment of human CD46 (membrane cofactor protein) comprising all four SCR domains (domain or fragment)” returned a stoichiometry N (CD46-4D molecules per knob trimer) in data set [1] of 3.

B1: human adenovirus type 11 fiber knob (domain or fragment)
chain: LTFNSNNICIDDNINTLWTGVNPTEANCQIMNSSESNDCKLILTLVKTGALVTAFVYVIGVSNNFNMLTTHRNINFTAELFFDSTGNLLTRLSSLKTPLNHKSGQNMATGAITNAKGFMPSTTAYPFNDNSREKENYIYGTCYYTASDRTAFPIDISVMLNRRAINDETSYCIRITWSWNTGDAPEVQTSATTLVTSPFTFYYIREDD
notes: fiber protein of human adenovirus type 11, knob domain, amino acids 118-325; also called Ad11 knob; Ad11 fiber knob
Turning to B1, the “stoichiometry N” value in data set [2] is 3 protomers.

As usually defined, the stoichiometry N is a count of units in the complex or per binding partner.
